The chains are these.
B1: IAB2M γ1 EH2 (other)
chain: DIVMTQSPSSLSASVGDRVTITCKASQDVGTAVDWYQQKPGKAPKLLIYWASTRHTGVPDRFTGSGSGTDFTLTISSLQPEDFADYFCQQYNSYPLTFGGGTKLEIKGSTSGGGSGGGSGGGGSSEVQLVQSGAEVKKPGASVKISCKTSGYTFTEYTIHWVKQASGKGLEWIGNINPNNGGTTYNQKFEDRATLTVDKSTSTAYMELSSLRSEDTAVYYCAAGWNFDYWGQGTTVTVSSEPKSSDKTHTCPPCGGGSSGGGSGGQPREPQVYTLPPSRDELTKNQVSLTCLVKGFYPSDIAVEWESNGQPENNYKTTPPVLDSDGSFFLYSKLTVDKSRWQQGNVFSCSVMHEALHNHYTQKSLSLSPGK
B2: IAB2M γ1 EH1 (other)
chain: B1 chain with S245C
B3: IAB2M γ2 EH1 (other)
chain: DIVMTQSPSSLSASVGDRVTITCKASQDVGTAVDWYQQKPGKAPKLLIYWASTRHTGVPDRFTGSGSGTDFTLTISSLQPEDFADYFCQQYNSYPLTFGGGTKLEIKGSTSGGGSGGGSGGGGSSEVQLVQSGAEVKKPGASVKISCKTSGYTFTEYTIHWVKQASGKGLEWIGNINPNNGGTTYNQKFEDRATLTVDKSTSTAYMELSSLRSEDTAVYYCAAGWNFDYWGQGTTVTVSSERKCCVECPPCPGGGSSGGGSGGQPREPQVYTLPPSREEMTKNQVSLTCLVKGFYPSDIAVEWESNGQPENNYKTTPPMLDSDGSFFLYSKLTVDKSRWQQGNVFSCSVMHEALHNHYTQKSLSLSPGK
B4: IAB2M γ1 EH3 (other)
chain: DIVMTQSPSSLSASVGDRVTITCKASQDVGTAVDWYQQKPGKAPKLLIYWASTRHTGVPDRFTGSGSGTDFTLTISSLQPEDFADYFCQQYNSYPLTFGGGTKLEIKGSTSGGGSGGGSGGGGSSEVQLVQSGAEVKKPGASVKISCKTSGYTFTEYTIHWVKQASGKGLEWIGNINPNNGGTTYNQKFEDRATLTVDKSTSTAYMELSSLRSEDTAVYYCAAGWNFDYWGQGTTVTVSSEPKSSDKTHTCPPCPPCGGGSSGGGSGGQPREPQVYTLPPSRDELTKNQVSLTCLVKGFYPSDIAVEWESNGQPENNYKTTPPVLDSDGSFFLYSKLTVDKSRWQQGNVFSCSVMHEALHNHYTQKSLSLSPGK
B5: IAB2M γ3/γ1 EH8 (other)
chain: DIVMTQSPSSLSASVGDRVTITCKASQDVGTAVDWYQQKPGKAPKLLIYWASTRHTGVPDRFTGSGSGTDFTLTISSLQPEDFADYFCQQYNSYPLTFGGGTKLEIKGSTSGGGSGGGSGGGGSSEVQLVQSGAEVKKPGASVKISCKTSGYTFTEYTIHWVKQASGKGLEWIGNINPNNGGTTYNQKFEDRATLTVDKSTSTAYMELSSLRSEDTAVYYCAAGWNFDYWGQGTTVTVSSELKTPLGDTTHTCPPCPPCPPCGGGSSGGGSGGQPREPQVYTLPPSRDELTKNQVSLTCLVKGFYPSDIAVEWESNGQPENNYKTTPPVLDSDGSFFLYSKLTVDKSRWQQGNVFSCSVMHEALHNHYTQKSLSLSPGK
B6: IAB2M γ3/γ1 EH7 (other)
chain: DIVMTQSPSSLSASVGDRVTITCKASQDVGTAVDWYQQKPGKAPKLLIYWASTRHTGVPDRFTGSGSGTDFTLTISSLQPEDFADYFCQQYNSYPLTFGGGTKLEIKGSTSGGGSGGGSGGGGSSEVQLVQSGAEVKKPGASVKISCKTSGYTFTEYTIHWVKQASGKGLEWIGNINPNNGGTTYNQKFEDRATLTVDKSTSTAYMELSSLRSEDTAVYYCAAGWNFDYWGQGTTVTVSSELKTPLGDTTHTCPPCPPCGGGSSGGGSGGQPREPQVYTLPPSRDELTKNQVSLTCLVKGFYPSDIAVEWESNGQPENNYKTTPPVLDSDGSFFLYSKLTVDKSRWQQGNVFSCSVMHEALHNHYTQKSLSLSPGK
B7: IAB2M γ3/γ1 EH6 (other)
chain: B6 chain with P254V, P255E
B8: IAB2M γ1 EH5 (other)
chain: DIVMTQSPSSLSASVGDRVTITCKASQDVGTAVDWYQQKPGKAPKLLIYWASTRHTGVPDRFTGSGSGTDFTLTISSLQPEDFADYFCQQYNSYPLTFGGGTKLEIKGSTSGGGSGGGSGGGGSSEVQLVQSGAEVKKPGASVKISCKTSGYTFTEYTIHWVKQASGKGLEWIGNINPNNGGTTYNQKFEDRATLTVDKSTSTAYMELSSLRSEDTAVYYCAAGWNFDYWGQGTTVTVSSEPKSSDKTHTCPPCPPCPPCGGGSSGGGSGGQPREPQVYTLPPSRDELTKNQVSLTCLVKGFYPSDIAVEWESNGQPENNYKTTPPVLDSDGSFFLYSKLTVDKSRWQQGNVFSCSVMHEALHNHYTQKSLSLSPGK
B9: IAB2M γ2 EH2 (other)
chain: B3 chain with C244S
B10: IAB22M γ3/γ1 EH8 (other)
chain: DVQITQSPSSLSASVGDRVTITCRTSRSISQYLAWYQQKPGKVPKLLIYSGSTLQSGVPSRFSGSGSGTDFTLTISSLQPEDVATYYCQQHNENPLTFGGGTKVEIKGSTSGGGSGGGSGGGGSSEVQLVESGGGLVQPGGSLRLSCAASGFNIKDTYIHFVRQAPGKGLEWIGRIDPANDNTLYASKFQGKATISADTSKNTAYLQMNSLRAEDTAVYYCGRGYGYYVFDHWGQGTLVTVSSELKTPLGDTTHTCPPCPPCPPCGGGSSGGGSGGQPREPQVYTLPPSRDELTKNQVSLTCLVKGFYPSDIAVEWESNGQPENNYKTTPPVLDSDGSFFLYSKLTVDKSRWQQGNVFSCSVMHEALHNHYTQKSLSLSPGK
B11: IAB22M γ3/γ1 EH7 (other)
chain: DVQITQSPSSLSASVGDRVTITCRTSRSISQYLAWYQQKPGKVPKLLIYSGSTLQSGVPSRFSGSGSGTDFTLTISSLQPEDVATYYCQQHNENPLTFGGGTKVEIKGSTSGGGSGGGSGGGGSSEVQLVESGGGLVQPGGSLRLSCAASGFNIKDTYIHFVRQAPGKGLEWIGRIDPANDNTLYASKFQGKATISADTSKNTAYLQMNSLRAEDTAVYYCGRGYGYYVFDHWGQGTLVTVSSELKTPLGDTTHTCPPCPPCGGGSSGGGSGGQPREPQVYTLPPSRDELTKNQVSLTCLVKGFYPSDIAVEWESNGQPENNYKTTPPVLDSDGSFFLYSKLTVDKSRWQQGNVFSCSVMHEALHNHYTQKSLSLSPGK
B12: IAB22M γ3/γ1 EH6 (other)
chain: B11 chain with P257V, P258E
B13: IAB22M γ1 EH3 (other)
chain: DVQITQSPSSLSASVGDRVTITCRTSRSISQYLAWYQQKPGKVPKLLIYSGSTLQSGVPSRFSGSGSGTDFTLTISSLQPEDVATYYCQQHNENPLTFGGGTKVEIKGSTSGGGSGGGSGGGGSSEVQLVESGGGLVQPGGSLRLSCAASGFNIKDTYIHFVRQAPGKGLEWIGRIDPANDNTLYASKFQGKATISADTSKNTAYLQMNSLRAEDTAVYYCGRGYGYYVFDHWGQGTLVTVSSEPKSSDKTHTCPPCPPCGGGSSGGGSGGQPREPQVYTLPPSRDELTKNQVSLTCLVKGFYPSDIAVEWESNGQPENNYKTTPPVLDSDGSFFLYSKLTVDKSRWQQGNVFSCSVMHEALHNHYTQKSLSLSPGK
B14: IAB22M γ1 EH5 (other)
chain: DVQITQSPSSLSASVGDRVTITCRTSRSISQYLAWYQQKPGKVPKLLIYSGSTLQSGVPSRFSGSGSGTDFTLTISSLQPEDVATYYCQQHNENPLTFGGGTKVEIKGSTSGGGSGGGSGGGGSSEVQLVESGGGLVQPGGSLRLSCAASGFNIKDTYIHFVRQAPGKGLEWIGRIDPANDNTLYASKFQGKATISADTSKNTAYLQMNSLRAEDTAVYYCGRGYGYYVFDHWGQGTLVTVSSEPKSSDKTHTCPPCPPCPPCGGGSSGGGSGGQPREPQVYTLPPSRDELTKNQVSLTCLVKGFYPSDIAVEWESNGQPENNYKTTPPVLDSDGSFFLYSKLTVDKSRWQQGNVFSCSVMHEALHNHYTQKSLSLSPGK
B15: IAB22M γ2 EH2 (other)
chain: DVQITQSPSSLSASVGDRVTITCRTSRSISQYLAWYQQKPGKVPKLLIYSGSTLQSGVPSRFSGSGSGTDFTLTISSLQPEDVATYYCQQHNENPLTFGGGTKVEIKGSTSGGGSGGGSGGGGSSEVQLVESGGGLVQPGGSLRLSCAASGFNIKDTYIHFVRQAPGKGLEWIGRIDPANDNTLYASKFQGKATISADTSKNTAYLQMNSLRAEDTAVYYCGRGYGYYVFDHWGQGTLVTVSSERKSCVECPPCPGGGSSGGGSGGQPREPQVYTLPPSREEMTKNQVSLTCLVKGFYPSDIAVEWESNGQPENNYKTTPPMLDSDGSFFLYSKLTVDKSRWQQGNVFSCSVMHEALHNHYTQKSLSLSPGK

This passage reports EC50 results from patent US20220089730A1 (published 2022).

Substitutions are numbered along the chain they refer to.

CD8 (cell surface CD8 on HPB-ALL cells), sequence (P01732 22-235, chain 1 of 2): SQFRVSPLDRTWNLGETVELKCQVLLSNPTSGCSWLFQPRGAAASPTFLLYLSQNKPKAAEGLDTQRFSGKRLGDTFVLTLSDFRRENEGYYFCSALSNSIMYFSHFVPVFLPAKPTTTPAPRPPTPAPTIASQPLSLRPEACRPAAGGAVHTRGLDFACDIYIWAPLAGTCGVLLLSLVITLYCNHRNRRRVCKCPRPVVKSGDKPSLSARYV
CD8 (cell surface CD8 on HPB-ALL cells), sequence (A6NJW9 19-210 C51R/T71A, chain 2 of 2): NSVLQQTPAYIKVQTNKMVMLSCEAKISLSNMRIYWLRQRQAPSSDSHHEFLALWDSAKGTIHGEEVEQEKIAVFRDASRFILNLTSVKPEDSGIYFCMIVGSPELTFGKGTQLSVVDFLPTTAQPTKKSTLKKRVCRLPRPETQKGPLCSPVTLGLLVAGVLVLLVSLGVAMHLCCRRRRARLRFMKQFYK

One assay deals with T1, PSMA (Prostate-Specific Membrane Antigen), glutamate carboxypeptidase 2 (UniProt Q04609 1-750). As to the kind of experiment: FACS; C4-2 XCL cells. (In general: A flow cytometer gives signals particle by particle.)
On to B1, for which the EC50 (usually the concentration needed to bring the measured effect to its halfway point) is 0.26 nM.

B2 had an EC50 of 0.4 nM.

The molecule B3 came in with an EC50 of 0.27 nM.

In the case of B4, the EC50 turned out to be 0.38 nM.

The next assay concerns the target T1, PSMA (Prostate-Specific Membrane …). As to the kind of experiment: FACS.
As for B5, the response was half-maximal at 0.227 nM (EC50).

The molecule B6 registered an EC50 of 0.186 nM.

In turn, B7 showed an EC50 of 0.188 nM.

B4 gave an EC50 of 0.162 nM.

The molecule B8 came in with an EC50 of 0.183 nM.

The target is the same in another assay. Kind of assay: FACS; LNCaP-AR cells.
Molecule B1 had an EC50 of 0.06 nM.

Turning to B2, the EC50 was determined as 0.05 nM.

In the case of B9, the EC50 is 0.05 nM.

The next assay concerns the target CD8 (cell surface CD8 on HPB-ALL cells) (UniProt P01732 22-235; A6NJW9 19-210). Kind of assay: FACS.
Consider B10, for which the midpoint of the response, the EC50, lay at 0.163 nM.

In the case of B11, a half-maximal response (EC50) required 0.17 nM.

B12 returned an EC50 of 0.188 nM.

In turn, B13 showed an EC50 of 0.37 nM.

B14 yielded a 50% effective concentration (EC50) of 0.146 nM.

The molecule B15 yielded an EC50 of 0.156 nM.

The target of a further assay is T1, PSMA (Prostate-Specific Membrane …). As to the kind of experiment: FACS; table prints γ2 EH2, curve legend prints γ1 EH1.
B9 gave an EC50 of 0.176 nM.
